For data set [1], the target named is T1, GST-AGR2 (on GSH-Sepharose beads) (UniProt O95994 21-175). Kind of data set: flow cytometry bead binding; 1x PBS (137 mM NaCl, 2.7 mM KCl, 10 mM Na2HPO4, 2.0 mM KH2PO4), pH 7.4, 37 C, 45 min, 200 uL; K+ varied in Fig 4. The conditions noted are these: protein: recombinant, (pGEX-GST-AGR2). A general note: A flow cytometer gives signals particle by particle.

Data set [2] addresses T1, GST-AGR2 (on GSH-Sepharose beads). In words: flow cytometry bead binding; with K+; 1x PBS (137 mM NaCl, 2.7 mM KCl, 10 mM Na2HPO4, 2.0 mM KH2PO4), pH 7.4, 37 C, 45 min, 200 uL; K+ varied in Fig 4. Conditions: protein: recombinant; (pGEX-GST-AGR2); label: 3' FAM; intramolecular parallel G4.
Data set [3] addresses GST (on GSH-Sepharose beads) (UniProt P08515 1-218). Kind of data set: flow cytometry bead binding; 1x PBS (137 mM NaCl, 2.7 mM KCl, 10 mM Na2HPO4, 2.0 mM KH2PO4), pH 7.4, 37 C, 45 min, 200 uL; K+ varied in Fig 4. The conditions noted are these: protein: recombinant; chain copies: 2; label: FAM.
A further data set has as its target Streptavidin (SA beads) (UniProt P22629 25-183). In words: SA-bead flow cytometry (allosteric beacon); with AGR2; 1x PBS (137 mM NaCl, 2.7 mM KCl, 10 mM Na2HPO4, 2.0 mM KH2PO4), pH 7.4, 37 C, 45 min, 200 uL; K+ varied in Fig 4. The conditions noted are these: protein: commercial; chain copies: 4; label: 3' FAM; hairpin.
In a further data set the target is Thrombin (UniProt P00734;P00734 328-363;364-622). In words: SA-bead flow cytometry (allosteric beacon); 500 nM; SA beads; 1x PBS (137 mM NaCl, 2.7 mM KCl, 10 mM Na2HPO4, 2.0 mM KH2PO4), pH 7.4, 37 C, 45 min, 200 uL; K+ varied in Fig 4.
For data set [4], the target named is T1, GST-AGR2 (on GSH-Sepharose beads). In words: SA-bead flow cytometry (allosteric beacon); SA beads; 100 nM AGR2 detected; 1x PBS (137 mM NaCl, 2.7 mM KCl, 10 mM Na2HPO4, 2.0 mM KH2PO4), pH 7.4, 37 C, 45 min, 200 uL; K+ varied in Fig 4. The conditions noted are these: protein: recombinant; (pGEX-GST-AGR2); label: 3' FAM; hairpin.

Experimental findings from paper PMC3460915, “Identification, Characterization and Application of a G-Quadruplex Structured DNA Aptamer against Cancer Biomarker Protein Anterior Gradient Homolog 2” are described below.

T1 sequence (O95994 21-175): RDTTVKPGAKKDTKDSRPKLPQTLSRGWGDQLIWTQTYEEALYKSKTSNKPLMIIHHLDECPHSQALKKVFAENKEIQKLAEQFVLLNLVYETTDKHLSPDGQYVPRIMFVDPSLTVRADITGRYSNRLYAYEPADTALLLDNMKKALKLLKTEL
Chain of Streptavidin (SA beads) (P22629 25-183): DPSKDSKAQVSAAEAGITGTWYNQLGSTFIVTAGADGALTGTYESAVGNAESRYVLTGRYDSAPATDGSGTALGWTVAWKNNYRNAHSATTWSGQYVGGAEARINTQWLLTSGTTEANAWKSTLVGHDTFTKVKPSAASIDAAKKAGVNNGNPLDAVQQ
Chain of GST (on GSH-Sepharose beads) (P08515 whole entry): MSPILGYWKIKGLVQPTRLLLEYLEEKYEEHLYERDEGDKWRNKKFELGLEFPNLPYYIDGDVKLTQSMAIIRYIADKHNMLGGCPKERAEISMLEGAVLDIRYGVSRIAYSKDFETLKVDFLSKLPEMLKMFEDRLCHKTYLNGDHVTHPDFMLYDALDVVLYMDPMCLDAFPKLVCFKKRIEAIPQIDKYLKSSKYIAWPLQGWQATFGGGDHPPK

B1: C14D (ssDNA)
DNA: TCTCGGACGCGTGTGGTCGGTGCATTCTTCTGTTCTTTTAGTGTTTTGTGTTGTATGTTCTTATCCTCGCTGCCTGGCCCTAGAGTG
In the case of B1, the equilibrium dissociation constant (Kd) (commonly the concentration at which binding is half-saturated) in data set [1] (label: FAM) stood at 48.4 ± 15.6 nM.

B2: C14A (ssDNA)
DNA: TCTCGGACGCGTGTGGTCGGGGGGGCGGGGGTTGGGTGGTGGCTTCATTTTGTTTCACGTCGTCCTCGCTGCCTGGCCCTAGAGTG
For B2, the dissociation constant Kd in data set [1] (label: FAM) is 20.9 ± 5.2 nM.

B3: C14C (ssDNA)
DNA: TCTCGGACGCGTGTGGTCGGCGTTGGGTGGGGGTGGCGGGGGTAGGGTGGTAGGTCGCTAAAATGCTCGCTGCCTGGCCCTAGAGTG
Consider B3, for which the dissociation constant Kd in data set [1] (label: FAM) came to 44.6 ± 7 nM.

B4: C14B0 (ssDNA)
DNA: CGGGTGGGAGTTGTGGGGGGGGGTGGGAGGGTTCTTTGTTTGATCTTTCTCGCTGCCTGGCCCTAGAGTG
Take B4: the dissociation constant Kd in data set [1] (label: FAM) was determined as 8.5 ± 3.6 nM.

Consider CGGGTGGGAGTTGTGGGGGGGGGTGGGAGGGTT (structured_DNA) [C14B1], for which the equilibrium dissociation constant (Kd) in data set [1] (label: 3' FAM, intramolecular parallel G4) was 19.1 ± 5.1 nM; in data set [2], 6.2 ± 1.9 nM.

B5: C14B (ssDNA)
DNA: TCTCGGACGCGTGTGGTCGGGTGGGAGTTGTGGGGGGGGGTGGGAGGGTTCTTTGTTTGATCTTTCTCGCTGCCTGGCCCTAGAGTG
As for B5, the binding result in data set [3] was “no binding”. Further, the Kd in data set [1] (label: FAM) came out at 13.1 ± 7.2 nM.

B6: AGR2-aMB (structured_DNA)
DNA: CGACGCACCGATCGCAGGTTCGGGATTTTCGGGTGGGAGTTGTGGGGGGGGGTGGGAGGGTT
With B6, the binding result was “binds” with Streptavidin (SA beads), “no binding” with Thrombin and “binds” in data set [4].
